Assay results: patent US20040248129A1, “Rhesus monkey, dog and feeret melanin-concentrating hormone type 1 receptor” (priority 2001, published 2004)
“And” between values parts separate entries of the source, which are not always exact repeats. Equal entries are not always repeated. Positions of bridges follow the written chain, without caps; N, C: chain ends. No end group written: not given here.

Assays:
[1] = biological target: rhesus monkey MCH-1R (melanin-concentrating hormone type 1 receptor) (rhesus monkey) (UniProt Q8MJ89); test: radioligand binding, 100 pM, HEK293T cells expressing rhesus MCH-1R, replicate 1
[2] = biological target: rhesus monkey MCH-1R (melanin-concentrating hormone type 1 receptor) (rhesus monkey) (UniProt Q8MJ89); test: radioligand binding, 100 pM, HEK293T cells expressing rhesus MCH-1R, replicate 2
[3] = biological target: rhesus monkey MCH-1R (melanin-concentrating hormone type 1 receptor) (rhesus monkey) (UniProt Q8MJ89); test: radioligand binding, 100 pM, HEK293T cells expressing rhesus MCH-1R, replicate 3
[4] = biological target: rhesus monkey MCH-1R (melanin-concentrating hormone type 1 receptor) (rhesus monkey) (UniProt Q8MJ89); test: radioligand binding, 100 pM, in the presence of 1 uM cold [Phe13,Tyr19]-MCH, HEK293T cells expressing rhesus MCH-1R, replicate 1
[5] = biological target: rhesus monkey MCH-1R (melanin-concentrating hormone type 1 receptor) (rhesus monkey) (UniProt Q8MJ89); test: radioligand binding, 100 pM, in the presence of 1 uM cold [Phe13,Tyr19]-MCH, HEK293T cells expressing rhesus MCH-1R, replicate 2
[6] = biological target: rhesus monkey MCH-1R (melanin-concentrating hormone type 1 receptor) (rhesus monkey) (UniProt Q8MJ89); test: radioligand binding, 100 pM, in the presence of 1 uM cold [Phe13,Tyr19]-MCH, HEK293T cells expressing rhesus MCH-1R, replicate 3
rhesus MCH-1R [7] = biological target: T1, rhesus MCH-1R (Macaca mulatta, UniProt Q8MJ89); test: Intracellular calcium (fura-2) in HEK293T cells transiently expressing rhesus MCH-1R; assay type: cell-based, rhesus monkey; conditions: read-out: EC50, increase in intracellular calcium levels
T1 construct: expressed in transfected cells; host or cells: HEK293T
Source text: The entire coding sequence of rhesus MCH-1R was cloned into EcoRI-NotI site of pEF1lV5-HisB plasmid vector (Invitrogen, Carlsbad, Calif.). The resultant construct was transfected into HEK293T cells using LipofectAmine PLUS (Life Technologies, Rockville, Md.) according to the manufacture's instructions. Human embryonic kidney cells constitutively expressing SV40 large T antigen (HEK-293T) were maintained in Dulbecco's modified Eagle medium (Life Technologies) supplemented with 10% fetal bovine serum, 100 units/ml penicillin-G and 100 μg/ml streptomycin at 37° C. with 5% CO2 in a humidified atmosphere.
The intracellular calcium ion concentration ([Ca^2+]i) was measured fluorometrically using a Ca^2+-sensitive fluorescent dye, fura-2. HEK293T cells transiently transfected with pEF1N5-HisB plasmid vector harboring rhesus MCH-1R cDNA were harvested by phosphate-buffered saline containing 2 mM EDTA 48 hours after transfection, and washed once with the assay buffer (Hanks' balanced salt solution containing 20 mM HEPES and 0.1% BSA, pH 7.4). […] Data were analyzed using the software GraphPad Prism Version 3.0 (GraphPad Software, Inc., San Diego, Calif., USA).

rhesus MCH-1R [8] = biological target: T1, rhesus MCH-1R; test: Inhibition of [125I]-MCH binding to rhesus MCH-1R expressed on HEK293T cells (filtration); set-up: species or system rhesus monkey; conditions: 100 pM [125I]-MCH, 4×10^5 cells/tube, 30 min, 37° C.
Protocol: (§1) HEK293T cells transfected with pEF1IV5-HisB/MCH1R plasmid were harvested by phosphate-buffered saline containing 2 mM EDTA 48 hours after transfection, and washed once with the assay buffer (Hanks' balanced salt solution containing 20 mM HEPES, 0.2% BSA and 100 μg/ml bacitracin, pH 7.4). The cells (4×10^5 cells/tube) were then incubated in 250 μl/tube of the same buffer with 100 pM […] for 30 minutes at 37° C. After the incubation, bound and free [^25I]-MCH were separated by filtration using a Unifilter GF/B glass filter (Packard Instrument) presoaked with 0.3% polyethylenimine. The remaining radioactivity on the filter was quantitated using a TopCount HTS (Packard instrument) with a Microscint 0 scintillation cocktail (Packard instrument). Specific binding was defined as the difference between total binding and nonspecific binding in the presence of 1 μM cold MCH. Data were analyzed using GraphPad Prism Version 3.0.

rhesus MCH-1R [9] = biological target: T1, rhesus MCH-1R; test: Radioligand binding to adherent HEK293T cells transfected with rhesus MCH-1R; set-up: species or system rhesus monkey
Protocol: HEK293T cells were seeded into 24-well culture plates coated with poly-D-Lys at 1×10^5 cells/well and were cultured during over-night. The adherent cells were transfected with pEF1/V5-HisB/rhesus MCH-1R plasmid (see Example 2). Forty-eight hours after transfection, the transfected monolayer cells were rinsed with the assay buffer (Hanks' balanced salt solution containing 20 mM HEPES, 0.2% BSA and 100 μg/ml bacitracin, pH 7.4). The cells were then incubated in 250 μl well of the same buffer with [^125I]-MCH (100 pM, NEN Life Science Products, Boston, Mass.) or [^125I]-[Phe^13,Tyr^19]-MCH (100 pM, NEN Life Science Products) for 30 minutes at 37° C. After the incubation, the cells were washed three times with the ice cold assay buffer and lysed with 500 μl/well of 2 M NaOH. The lysates were transferred into test tubes and the cell- bound radioactivity was measured by a COBLA Quantum γ-counter (Packard Instrument, Meriden, CT). Nonspecific binding was defined in the presence of 1 μM cold MCH or [Phe^13,Tyr^19]-MCH for the corresponding radio ligands.

[10] = tested on: mock transfected cells (HEK293T); test: Radioligand binding to mock transfected HEK293T cells; set-up: species or system human
[11] = biological target: T2, rhesus monkey MCH-1R (melanin-concentrating hormone type 1 receptor) (rhesus monkey), Q8MJ89; test: cell-based or functional assay
T2 chain: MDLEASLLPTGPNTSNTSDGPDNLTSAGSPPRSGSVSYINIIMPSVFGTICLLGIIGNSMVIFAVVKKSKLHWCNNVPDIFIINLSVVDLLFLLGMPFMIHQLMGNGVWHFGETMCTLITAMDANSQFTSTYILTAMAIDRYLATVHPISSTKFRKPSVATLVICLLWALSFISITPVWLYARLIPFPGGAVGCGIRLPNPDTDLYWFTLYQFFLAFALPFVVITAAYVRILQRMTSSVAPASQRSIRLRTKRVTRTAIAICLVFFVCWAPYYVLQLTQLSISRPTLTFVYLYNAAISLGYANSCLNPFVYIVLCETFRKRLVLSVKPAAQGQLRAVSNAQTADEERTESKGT

[12] = biological target: T2, rhesus monkey MCH-1R …; test: displacement of 100 pM [125I]-MCH from HEK293T cells expressing rhesus MCH-1R, filtration
[13] = biological target: T3, rhesus monkey MCH-1R (melanin-concentrating hormone type 1 receptor) (rhesus monkey, UniProt Q8MJ89 1-353); test: cell-based or functional assay
[14] = biological target: T3, rhesus monkey MCH-1R …; test: displacement of 100 pM [125I]-MCH from HEK293T cells expressing rhesus MCH-1R, filtration
Protocol: as §1, with “(4×10⁵” for “(4×10^5”, “[²⁵I]-MCH” for “[^25I]-MCH”
IC₅₀ values of MCH and [Phe¹³,Tyr¹⁹]-MCH in this experiment were calculated as 0.074 and 0.14 nM, respectively.

[15] = Rhesus MCH-1R transfected HEK293T, 100 pM radioligand, 30 min, 37° C.
[16] = Mock transfected HEK293T, 100 pM radioligand

“[^125I]-[Phe^13,Tyr^19]-MCH (from UniProt P20382 147-165) (peptide)” gave a Total binding (cpm) [1] of 5350 cpm, a Total binding (cpm) [2] of 5540 cpm and a Total binding (cpm) [3] of 6350 cpm. The Nonspecific binding (cpm) [4] was 1520 cpm, the Nonspecific binding (cpm) [5] was 2020 cpm and the Nonspecific binding (cpm) [6] was 1030 cpm.

`CSCC[C@@H]1NC(=O)[C@@H](NC(=O)[C@H](CCCNC(=N)N)NC(=O)[C@H](CC(C)C)NC(=O)[C@H](CCSC)NC(=O)[C@H](CC(=O)O)NC(=O)[C@H](Cc2ccccc2)NC(=O)[C@@H](N)CC(=O)O)CSSC[C@@H](C(=O)N[C@@H](Cc2c[nH]c3ccccc23)C(=O)N[C@@H](CCC(N)=O)C(=O)N[C@H](C(=O)O)C(C)C)NC(=O)[C@@H]2CCCN2C(=O)[C@H](CCCNC(=N)N)NC(=O)[C@H](Cc2ccc(O)cc2)NC(=O)[C@H](C(C)C)NC(=O)[C@H](CCCNC(=N)N)NC(=O)CNC(=O)[C@H](CC(C)C)NC1=O` [MCH, Melanin-concentrating hormone] showed an EC50 (rhesus MCH-1R [7]) of 0.3 nM and an IC50 (rhesus MCH-1R [8]) of 0.074 nM.

For [^125I]-MCH, the “Binding to HEK293T cells expressing rhesus MCH-1R (in words)” value (rhesus MCH-1R [9]; 100 pM radioligand) was “bound to the HEK293T cells expressing rhesus MCH-1R with good windows”, the “[125I]-MCH binding, Total binding” value (rhesus MCH-1R [9]; [15]) was 2542.8 cpm and 2893.4 cpm and 2315.5 cpm and the “Specific binding into mock transfected cells (in words)” value ([10]; 100 pM radioligand) was “Specific binding was not observed”. The “[125I]-MCH binding, Total binding” value [10, 16] was 209.9 cpm and 215.8 cpm and 239.8 cpm and the “[125I]-MCH binding, Nonspecific binding” value ([10]; Mock transfected HEK293T, 100 pM radioligand in the presence of 1 μM cold MCH) was 172.0 cpm and 180.9 cpm and 184.1 cpm.

In the case of [^125I]-[Phe^13,Tyr^19]-MCH, the “Binding to HEK293T cells expressing rhesus MCH-1R (in words)” value (rhesus MCH-1R [9]; 100 pM radioligand) is reported as “bound to the HEK293T cells expressing rhesus MCH-1R with good windows”, the “[125I]-[Phe13,Tyr19]-MCH binding, Nonspecific binding” value (rhesus MCH-1R [9]; Rhesus MCH-1R transfected HEK293T, 100 pM radioligand in the presence of 1 μM cold [Phe13,Tyr19]-MCH) is reported as 1524.1 cpm and 2023.5 cpm and 1029.6 cpm and the “[125I]-[Phe13,Tyr19]-MCH binding, Total binding” value (rhesus MCH-1R [9]; [15]) is reported as 5353.0 cpm and 5542.3 cpm and 6345.9 cpm. The “Specific binding into mock transfected cells (in words)” value ([10]; 100 pM radioligand) was “Specific binding was not observed”, the “[125I]-[Phe13,Tyr19]-MCH binding, Total binding” value [10, 16] was 708.9 cpm and 663.3 cpm and 771.5 cpm and the “[125I]-[Phe13,Tyr19]-MCH binding, Nonspecific binding” value ([10]; Mock transfected HEK293T, 100 pM radioligand in the presence of 1 μM cold [Phe13,Tyr19]-MCH) was 539.7 cpm and 537.7 cpm and 557.8 cpm.

DFDMLRCMLGRVYRPCWQV (peptide, UniProt P20382 147-165, looked up, modifications not checked) [MCH (melanin-concentrating hormone), unlabelled, P20382 147-165] was tested, and the increase in intracellular calcium levels (fura-2) in HEK293T cells transiently expressing rhesus MCH-1R, EC50 [11] was 0.3 nM and the IC50 [12] was 0.074 nM.

B1: [Phe^13,Tyr^19]-MCH, unlabelled (peptide)
peptide: DFDMLRCMLGRVFRPCWQY
modifications: disulfide 7-16 (inferred)
notes: Only the new residues (Phe13, Tyr19) are printed; also called cold [Phe^13,Tyr^19]-MCH
In the case of B1, the “increase in intracellular calcium levels (fura-2) in HEK293T cells transiently expressing rhesus MCH-1R, EC50” value [13] is reported as 1.1 nM and the IC50 [14] is reported as 0.14 nM.
